Reference: patent publication US20250074980A1 (BRIGHAM AND WOMEN S HOSPITAL, published 2025)
Numbering of substitutions follows the chain as printed. Names may count otherwise. Blank lines part the entries; values can stand above or below the binder they belong to.

Columns and labels:
His-tagged CEACAM1 [1] = target: T1, His-tagged CEACAM1 (human, UniProt P13688 35-428); assay: SPR single-cycle, IgG captured
T1 construct: 45 kDa SPR analyte; also called CEACAM1-HIS; CEACAM1 analyte
T1 sequence: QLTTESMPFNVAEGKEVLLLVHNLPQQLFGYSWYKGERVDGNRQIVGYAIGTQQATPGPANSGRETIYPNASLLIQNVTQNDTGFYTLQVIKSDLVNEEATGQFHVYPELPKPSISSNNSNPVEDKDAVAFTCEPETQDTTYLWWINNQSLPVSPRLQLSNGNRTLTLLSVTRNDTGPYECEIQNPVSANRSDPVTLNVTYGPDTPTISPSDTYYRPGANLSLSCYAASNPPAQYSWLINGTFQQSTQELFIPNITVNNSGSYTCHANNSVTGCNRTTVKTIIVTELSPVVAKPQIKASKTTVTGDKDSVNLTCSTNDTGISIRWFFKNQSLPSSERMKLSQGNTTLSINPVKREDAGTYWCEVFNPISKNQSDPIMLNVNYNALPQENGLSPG
Description: As an alternative approach to assess the binding of the 36 antibody combinations and the three control antibodies to CEACAM1, a kinetic analysis was performed on a Biacore T200 (serial no. 1909913) running Biacore T200 Evaluation Software V2.0.1 (Uppsala, Sweden). All experiments were run at 25° C. with HBS-P+ running buffer (pH 7.4) (GE Healthcare, cat. no. BR100671). All kinetic experiments were performed using His-tagged CEACAM1 as the analyte. For all experiments, antibodies were immobilized onto a Series S Protein A sensor chip surface. For kinetic experiments, the amount of immobilized/captured ligand was limited to avoid mass transfer effects at the surface of the chip with the surface ideally having an analyte binding level (Rₘₐₓ) of 50-150 RUs. Using a MW of 45 kDa for the CEACAM1 analyte, 150 kDa for the antibody ligand (estimated value for IgG), 50 RU for Rmax and the stoichiometry (Sm) as 2 due to the ability of each antibody to bind 2 target molecules, a target response level of ˜75 RUs was set for capture of all the sample antibodies.
Single cycle analysis of the 36 antibody combinations and the three control antibodies was performed on purified antibodies (Vκ1 to Vκ6 variants) or on the supernatants of the transiently transfected HEK EBNA cells (Vκ7 to Vκ12 variants). In some instances, where supernatant was not available, purified chimeric antibody VH0/Vκ0 was spiked into HEK EBNA culture medium to use as a positive control. Antibodies were diluted in HBS-P+ to a concentration of 1 μg/ml (as determined by an IgG quantitation ELISA). At the start of each cycle, antibodies were loaded onto Fc2, Fc3 and Fc4 of a protein A chip and IgG captured at a flow rate of 8 μl/min to give an RU of ˜75. The surface was then allowed to stabilize. Single cycle kinetic data was obtained at a flow rate of 50 μl/min to minimize any potential mass transfer effects. Multiple repeats of the chimeric antibody VH0/Vκ0 were performed to check the stability of the surface and analyte over the kinetic cycles. The signal from the reference channel Fc1 (no antibody) was subtracted from that of Fc2, Fc3 and Fc4 to correct for differences in non-specific binding to a reference surface. A 5 point 2-fold dilution range from 3.125 to 50 nM CEACAM1 without regeneration between each concentration was used.

His-tagged CEACAM1 [2] = target: T1, His-tagged CEACAM1; assay: SPR single-cycle, supernatant IgG captured
Description: In order to assess the binding of the humanized, affinity matured reformatted lead IgGs, single-cycle kinetics analysis was performed on crude supernatants using a Biacore T200 running Biacore T200 Control Software V2.0.1 and Biacore T200 Evaluation Software V3.0. Antibodies were diluted in HBS-P+ to a final concentration of 0.5 μg/ml. At the start of each cycle, antibodies were loaded onto Fc2, Fc3 and Fc4 of the Protein A chip. IgGs were captured at a flow rate of 10 μl/min to give an immobilisation level (RL) of ˜100 RU (a level calculated to obtain a Rₘₐₓ of ˜50-150 RU once the analyte is bound). The surface was then allowed to stabilize. Single-cycle kinetics data was obtained with CEACAM1 as the analyte at a flow rate of 80 μl/min to minimize any potential mass transfer effects. Multiple repeats with the parent (VH1/Vκ8 S29A) antibody were performed to check the stability of the surface and analyte over the kinetic cycles. The signal from the reference channel Fc1 (no antibody) was subtracted from that of Fc2, Fc3 and Fc4 to correct for differences in non-specific binding to the reference surface. A three point, two-fold dilution range from 70 nM to 280 nM CEACAM1 without regeneration between each concentration was used. The signal from each antibody blank run (no CEACAM1) was subtracted to correct for differences in surface stability. The association phase for the three injections of increasing concentrations of CEACAM1 was monitored for 80 seconds each time and a single dissociation phase was measured for 150 seconds following the last injection of CEACAM1. Regeneration of the Protein A surface was conducted using two injections of 10 mM glycine-HCL pH 1.5 followed by a stabilization period of 250 seconds.

His-tagged CEACAM1 [3] = target: T1, His-tagged CEACAM1; assay: SPR single-cycle, purified IgG captured
Method in brief: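 On a Biacore T200, purified IgG was captured on a Series S Protein A chip, and His-tagged CEACAM1 was passed over it as the analyte in single-cycle kinetics surface plasmon resonance at 25° C in HBS-P+ (pH 7.4). Reference-channel and blank-run signals were subtracted before fitting kon, koff and Kd, with relative KD calculated against the parent antibody assayed in the same experiment.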

His-tagged CEACAM1 [4] = target: T1, His-tagged CEACAM1; assay: SPR single-cycle, supernatant IgG captured; remark: listed apart in the source
Method in brief: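 His-tagged CEACAM1 served as analyte over Protein A-captured IgG in single-cycle surface plasmon resonance on a Biacore T200, performed at 25° C in HBS-P+ (pH 7.4). The IgG was taken from supernatants of transiently PEI-transfected HEK EBNA cells grown in 6-well plates and harvested 5-7 days later. Relative KD, alongside fitted Kon, koff and Kd, was referenced to the parent antibody run in the same experiment.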

B2: VH2/Vκ6 (antibody, IgG4, V domains shown)
VH: EVQLLESGGGLVQPGGSLRLSCAASGFIFSSHGMSWVRQAPGKGLEWVATISSGGTYTYYPDSVKGRFTISRDNSKNTLYLQMNSLRAEDTAMYYCARHDFDYDAAWFAYWGQGTLVTVSS
VL: DIQLTQSPSFLSASVGDRVTITCRANSSVSYMAWYQQKPGKAPKLLIYLTSNLQSGVPSRFSGSGSGTEFTLTISSLQPEDFATYYCQQWSSNPPTFGQGTKLEIK
notes: IgG4 (S241P), kappa
binding result (His-tagged CEACAM1 [1]): no binding (tested: 50 nM)

B4: 8H3_9B3/Vκ8 S29A (antibody, IgG4, V domains shown)
VH: B2 VH with I28T, S30N, S31A, G33A, M34I, R87K, D104F, A105P, A106Y, Y110H
VL: EIVLTQSPATLSLSPGERATLSCRANSAVSYMYWYQQKPGQAPRPWIYLTSNRATGVPARFSGSGSGTDYTLTISSLEPEDFAVYYCQQWSSNPPTFGQGTKLEIK
notes: IgG4 (S241P), kappa
Kd (His-tagged CEACAM1 [2]): 77 nM
koff (His-tagged CEACAM1 [2]): 0.0069 s⁻¹
kon (His-tagged CEACAM1 [2]): 90000 M⁻¹ s⁻¹
relative KD to parent (His-tagged CEACAM1 [2]): 7.2
Kd (His-tagged CEACAM1 [3]): 67 nM
koff (His-tagged CEACAM1 [3]): 0.0062 s⁻¹
kon (His-tagged CEACAM1 [3]): 92000 M⁻¹ s⁻¹
relative KD to parent (His-tagged CEACAM1 [3]): 7.1

B6: 9B3_9E5/Vκ8 S29A (antibody, IgG4, V domains shown)
VH: B2 VH with I28T, S30N, S31A, G33A, M34I, R87K, D100G
VL: B4 VL
notes: IgG4 (S241P), kappa
Kd (His-tagged CEACAM1 [2]): 150 nM
koff (His-tagged CEACAM1 [2]): 0.021 s⁻¹
kon (His-tagged CEACAM1 [2]): 140000 M⁻¹ s⁻¹
relative KD to parent (His-tagged CEACAM1 [2]): 3.8

B8: 8H3_9B3/CP08E05 (antibody, IgG4, V domains shown)
VH: B2 VH with I28T, S30N, S31A, G33A, M34I, R87K, D104F, A105P, A106Y, Y110H
VL: B4 VL with S91T, S92T
notes: IgG4 (S241P), kappa
Kd (His-tagged CEACAM1 [2]): 77 nM
koff (His-tagged CEACAM1 [2]): 0.0072 s⁻¹
kon (His-tagged CEACAM1 [2]): 93000 M⁻¹ s⁻¹
relative KD to parent (His-tagged CEACAM1 [2]): 7.3
Kd (His-tagged CEACAM1 [3]): 69 nM
koff (His-tagged CEACAM1 [3]): 0.0065 s⁻¹
kon (His-tagged CEACAM1 [3]): 95000 M⁻¹ s⁻¹
relative KD to parent (His-tagged CEACAM1 [3]): 6.9

Further lines, results first:

Kd (His-tagged CEACAM1 [1]): 64 nM
relative KD to VH0/Vκ0 (His-tagged CEACAM1 [1]): 1.5
B1: VH1/Vκ0 (antibody, IgG4, V domains shown)
VH: B2 VH with R87K
VL: QIVLTQSPALMSASPGVKVTMTCSANSSVSYMYWYRQKPRSSPKPWIYLTSNLASGVPARFSGSGSGTSYSLTISSMEAEDAATYYCQQWSSNPPTFGSGTKLEIK
notes: IgG4 (S241P), kappa; also called VH1/Vκ0 (control)

Kd (His-tagged CEACAM1 [1]): 49 nM
relative KD to VH0/Vκ0 (His-tagged CEACAM1 [1]): 1.2
B3: VH0/Vκ1 (antibody, IgG4, V domains shown)
VH: EVQLVESGGDLVKPGGSLKLACAASGFIFSSHGMSWVRQTPDKRLEWVATISSGGTYTYYPDSVKGRFTISRDNDKNTLYLQMNSLKSEDTAMYYCARHDFDYDAAWFAYWGQGTLVTVSS
VL: QIVLTQSPALLSLSPGERATMSCSANSSVSYMYWYRQKPGQAPKPWIYLTSNLASGVPARFSGSGSGTDYTLTISSLEAEDFATYYCQQWSSNPPTFGQGTKLEIK
notes: IgG4 (S241P), kappa; also called VH0/Vκ1 (control)

Kd (His-tagged CEACAM1 [4]): 97 nM
koff (His-tagged CEACAM1 [4]): 0.01 s⁻¹
kon (His-tagged CEACAM1 [4]): 110000 M⁻¹ s⁻¹
relative KD to parent (His-tagged CEACAM1 [4]): 5.7
Kd (His-tagged CEACAM1 [3]): 90 nM
koff (His-tagged CEACAM1 [3]): 0.0096 s⁻¹
kon (His-tagged CEACAM1 [3]): 110000 M⁻¹ s⁻¹
relative KD to parent (His-tagged CEACAM1 [3]): 5.3
B5: CP09B03/CP08E05 (antibody, IgG4, V domains shown)
VH: B2 VH with I28T, S30N, S31A, G33A, M34I, R87K
VL: B4 VL with S91T, S92T
notes: IgG4 (S241P), kappa

binding result (His-tagged CEACAM1 [1]): no binding (tested: 50 nM)
B7: VH1/Vκ6 (antibody, IgG4, V domains shown)
VH: B2 VH with R87K
VL: B2 VL
notes: IgG4 (S241P), kappa
